Measured values as given in the supplement of paper PMC10724198.
± gives the standard deviation of the averaged measurements.

Key:
Saccharomyces cerevisiae [1] = test: protein stability index of tFT-peptide fusion (C-terminal peptide) (PSI (0-1 scale)); higher = more stable (slower turnover)
Method: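 MPS profiling in S. cerevisiae of the tFT-X12 degron library: putative degron peptides plus stable controls, 12 aa, fused to the C-terminus of a sfGFP-mCherry timer. Cells are FACS-sorted into 8 mCherry/sfGFP bins and deep-sequenced. PSI runs from 0 (unstable) to 1 (stable). Backgrounds are wild type, das1Δ and doa10Δ at 30 °C, and wild type, das1Δ, cdc34-1 and cdc53-1 at 37 °C; 2-3 technical replicates each.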

Saccharomyces cerevisiae [2] = test: as above; settings: genetic background: wild type; temperature: 30 C
[3] = genetic background: cdc34-1, temperature: 37 C
[4] = genetic background: cdc53-1, temperature: 37 C
[5] = genetic background: das1 deletion, temperature: 30 C
[6] = genetic background: das1 deletion, temperature: 37 C
[7] = genetic background: doa10 deletion, temperature: 30 C
[8] = genetic background: wild type, temperature: 30 C
[9] = genetic background: wild type, temperature: 37 C
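Note: PSI is a weighted mean of sequencing reads over stability bins, variants kept only with over 10 reads, mCherry proximal and sfGFP distal, peptide attached via GGGS linker.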

Sequence	protein stability index (Saccharomyces cerevisiae [1]; [3])	protein stability index (Saccharomyces cerevisiae [1]; [4])	protein stability index (Saccharomyces cerevisiae [1]; [5])	protein stability index (Saccharomyces cerevisiae [1]; [6])	protein stability index (Saccharomyces cerevisiae [1]; [7])	protein stability index (Saccharomyces cerevisiae [1]; [8])	protein stability index (Saccharomyces cerevisiae [1]; [9])	protein stability index (Saccharomyces cerevisiae [2])
RILFSPSTFYLF	0.665 ± 0.048	0.761 ± 0.037	0.705 ± 0.03	0.7501 ± 0.0036	0.214 ± 0.024	0.265 ± 0.031	0.487 ± 0.024	0.397 ± 0.026
FLSVLPLFAFFA	0.581 ± 0.026	0.658 ± 0.045	0.552 ± 0.025	0.68 ± 0.028	0.219 ± 0.011	0.258 ± 0.014	0.4221 ± 0.0032	0.333 ± 0.0081
FWMLCFLCRLTV	0.3236 ± 0.0019	0.338 ± 0.0098	0.306 ± 0.043	0.459 ± 0.011	0.2213 ± 0.0021	0.221 ± 0.026	0.361 ± 0.0071	0.32 ± 0.03
LLLLASLFFRLA	0.522 ± 0.023	0.595 ± 0.01	0.467 ± 0.031	0.614 ± 0.03	0.177 ± 0.011	0.194 ± 0.015	0.37 ± 0.028	0.3 ± 0.016
FLPPVHRCFSIF	0.671 ± 0.037	0.742 ± 0.013	0.653 ± 0.022	0.745 ± 0.021	0.172 ± 0.014	0.193 ± 0.032	0.3915 ± 0.0028	
QRAVGLANFTIK	0.672 ± 0.065	0.7512 ± 0.0062	0.647 ± 0.043	0.7328 ± 0.0028	0.646 ± 0.048	0.669 ± 0.032	0.709 ± 0.018	
CLVISVLFGVVA	0.2376 ± 0.00026	0.269 ± 0.067	0.218 ± 0.034	0.382 ± 0.0091	0.1782 ± 0.0014	0.21 ± 0.016	0.326 ± 0.0065	
VFYWGGVLCGWG	0.337 ± 0.035	0.502 ± 0.074	0.309 ± 0.03	0.514 ± 0.014	0.297 ± 0.019	0.326 ± 0.036	0.439 ± 0.027	
APPRLPLLSCSQ	0.652 ± 0.021	0.712 ± 0.0095	0.661 ± 0.05	0.6939 ± 0.00016	0.684 ± 0.045	0.642 ± 0.044	0.699 ± 0.014	
GGGWGGRWGRLC	0.639 ± 0.047	0.754 ± 0.0091	0.6543 ± 0.0029	0.75462 ± 8e-05	0.193 ± 0.021	0.218 ± 0.035	0.479 ± 0.0076	
GFLFVLCAWGFF	0.178 ± 0.017	0.321 ± 0.039	0.227 ± 0.022	0.386 ± 0.019	0.21 ± 0.0069	0.236 ± 0.0048	0.318 ± 0.0066	
RSRNSEYILVYN	0.655 ± 0.018	0.672 ± 0.039	0.397 ± 0.045	0.6343 ± 0.0031	0.318 ± 0.012	0.391 ± 0.014	0.66 ± 0.025	
TGGGGRVSLGGG	0.337 ± 0.053	0.427 ± 0.032	0.384 ± 0.021	0.44 ± 0.022	0.374 ± 0.013	0.372 ± 0.0084	0.416 ± 0.044	
LVCSLLVPSSFF	0.679 ± 0.0081	0.7 ± 0.074	0.634 ± 0.016	0.722 ± 0.0063	0.667 ± 0.035	0.645 ± 0.011	0.7039 ± 0.0056	
APPSRRLTLRLA	0.577 ± 0.039	0.696 ± 0.019	0.6614 ± 0.0066	0.709 ± 0.017	0.142 ± 0.003	0.145 ± 0.0058	0.32 ± 0.044	
